The values below come from patent publication US20180155451A1 (published 2018).

Test [1] has as its target T1, FcgRIIaR (human, UniProt P12318 34-217).
T1 construct: extracellular domain; Soluble extracellular domain with C-terminal His tag; also called FcγRIIa R; FcγRIIa type R; not shown: His tag attached to the C terminus
T1 sequence (looked up): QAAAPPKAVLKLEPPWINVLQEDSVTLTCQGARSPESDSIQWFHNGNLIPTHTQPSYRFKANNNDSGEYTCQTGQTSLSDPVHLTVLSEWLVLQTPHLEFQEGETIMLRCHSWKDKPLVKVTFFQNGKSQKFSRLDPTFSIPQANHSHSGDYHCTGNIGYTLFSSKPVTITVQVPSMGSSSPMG
As to the kind of experiment: SPR (Biacore); KD of H240-Kn120/H240-Hl068/L73-k0 divided by KD of this antibody. On the procedure:
(§1) Analysis of interaction between obj ective antibody and the FcγR was carried out using Biacore T100 (GE Healthcare), Biacore T200, Biacore A100, and Biacore 4000.
On the technique in general: Surface plasmon resonance follows binding to a sensor surface in real time, without labels.

Test [2] addresses T2, FcgRIIIaV (human, UniProt P08637 17-208).
T2 construct: extracellular domain; Soluble extracellular domain with C-terminal His tag; polymorphic site made after J. Clin. Invest; also called FcγRIIIa V; not shown: His tag attached to the C terminus
The test is described as above. On the procedure:
as §1

The target of test [3] is T3, FcgRIa (human, UniProt P12314 16-292).
T3 construct: extracellular domain; Soluble extracellular domain with C-terminal His tag, expressed in FreeStyle293 cells; also called FcγRIa; FcγRI; not shown: His tag attached to the C terminus
The test is described as above. The procedure:
as §1

In test [4] the target is T4, FcgRIIb (human, UniProt P31994 43-217).
T4 construct: extracellular domain; Soluble extracellular domain with C-terminal His tag; also called FcγRIIb; CD32B; not shown: His tag attached to the C terminus
T4 sequence (looked up): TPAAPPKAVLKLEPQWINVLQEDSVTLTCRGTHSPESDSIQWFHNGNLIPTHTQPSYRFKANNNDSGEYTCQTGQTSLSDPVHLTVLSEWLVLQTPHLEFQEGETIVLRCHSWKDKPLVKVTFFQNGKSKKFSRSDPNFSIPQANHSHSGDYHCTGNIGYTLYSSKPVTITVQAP
Described as above. The procedure:
as §1

The target of test [5] is T5, FcgRIIIaF (human, UniProt P08637 17-208).
T5 construct: extracellular domain; Soluble extracellular domain with C-terminal His tag; polymorphic site made after J. Clin. Invest; also called FcγRIIIa F; not shown: His tag attached to the C terminus
Described as above. The procedure: as §1

Test [6] deals with T6, FcgRIIaH (human, UniProt P12318 34-217).
T6 construct: extracellular domain; Soluble extracellular domain with C-terminal His tag; also called FcγRIIa H; FcγRIIa type H; not shown: His tag attached to the C terminus
T6 sequence (looked up): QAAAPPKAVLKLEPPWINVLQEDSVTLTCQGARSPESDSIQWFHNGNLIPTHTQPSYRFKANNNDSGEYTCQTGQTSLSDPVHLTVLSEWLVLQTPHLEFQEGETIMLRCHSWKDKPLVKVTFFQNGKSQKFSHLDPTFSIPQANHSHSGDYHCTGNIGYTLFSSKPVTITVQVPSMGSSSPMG
The test is described as above. On the procedure:
as §1

In test [7] the target is T1, FcgRIIaR. Description: SPR (Biacore), antibody captured, FcgR as analyte.
Test [8] deals with T2, FcgRIIIaV. Description: SPR (Biacore), antibody captured, FcgR as analyte.
The target in test [9] is T3, FcgRIa. As to the kind of experiment: SPR (Biacore), antibody captured, FcgR as analyte.
Test [10] has as its target T4, FcgRIIb. Description: SPR (Biacore), antibody captured, FcgR as analyte.
The target of test [11] is T5, FcgRIIIaF. Description: SPR (Biacore), antibody captured, FcgR as analyte.
In test [12] the target is T6, FcgRIIaH. As to the kind of experiment: SPR (Biacore), antibody captured, FcgR as analyte.

T3 sequence (P12314 16-292): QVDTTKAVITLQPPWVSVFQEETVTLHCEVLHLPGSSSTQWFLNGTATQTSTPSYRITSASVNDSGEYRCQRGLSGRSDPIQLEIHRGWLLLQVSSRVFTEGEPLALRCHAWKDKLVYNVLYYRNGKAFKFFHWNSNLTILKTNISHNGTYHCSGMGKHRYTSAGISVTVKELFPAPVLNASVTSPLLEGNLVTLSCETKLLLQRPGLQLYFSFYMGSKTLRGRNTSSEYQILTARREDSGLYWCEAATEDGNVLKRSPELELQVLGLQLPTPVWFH
T5 sequence (P08637 17-208): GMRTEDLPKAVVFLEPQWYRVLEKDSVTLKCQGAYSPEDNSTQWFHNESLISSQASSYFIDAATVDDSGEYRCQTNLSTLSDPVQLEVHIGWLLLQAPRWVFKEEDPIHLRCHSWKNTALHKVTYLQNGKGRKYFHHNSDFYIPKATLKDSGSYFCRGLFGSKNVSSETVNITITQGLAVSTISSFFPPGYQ
T2 sequence (P08637 17-208 F176V limits assumed): as the sequence (P08637 17-208) above, with F160V counted along it

B1: H240-Kn149/H240-Hl068/L73-k0 (antibody, human IgG1, kappa)
heavy 1: QDQLVQSGAEVKKPGASVKVSCKASGFNIKDTYIQWVRQAPGQGLEWMGRIDPLRKQTKYREKFEGRVTITADTSTNTAYMELSSLRSEDTAVYYCVRSGREFDYWGQGTLVTVSSASTKGPSVFPLAPSSKSTSGGTAALGCLVKDYFPEPVTVSWNSGALTSGVHTFPAVLQSSGLYSLSSVVTVPSSSLGTQTYICNVNHKPSNTKVDKKVEPKSCDKTHTCPPCPAPEYYWGPMVFLFPPKPKDTLMISRTPEVTCVVVDVSDEDPEVKFNWYVDGVEVHNAKTKPREEQYNATYRVVSVLTVLHQDWLNGKEYKCKVSNKDWPAPIELTISKAKGQPREPQVCTLPPSRDELTKNQVSLWCLVKGFYPSDIAVEWESNGQPENNYKTTPPVLDSDGSFFLYSKLTVDKSRWQQGNVFSCSVMHEALHNHYTQKSLSLSP
heavy 2: QDQLVQSGAEVKKPGASVKVSCKASGFNIKDTYIQWVRQAPGQGLEWMGRIDPLRKQTKYREKFEGRVTITADTSTNTAYMELSSLRSEDTAVYYCVRSGREFDYWGQGTLVTVSSASTKGPSVFPLAPSSKSTSGGTAALGCLVKDYFPEPVTVSWNSGALTSGVHTFPAVLQSSGLYSLSSVVTVPSSSLGTQTYICNVNHKPSNTKVDKKVEPKSCDKTHTCPPCPAPELLGGPSVFLFPPKPKDTLMISRTPEVTCVVVDVSHEEPEVKFNWYVDGVEVHNAKTKPREEQYNSTYRVVSVLTVLHQDWLNGKEYKCKVSNDALPKPIEETISKAKGQPREPQVYTLPPSRCELTKNQVSLSCAVKGFYPSDIAVEWESNGQPENNYKTTPPVLDSDGSFFLVSKLTVDKSRWQQGNVFSCSVMHEALHNHYTQKSLSLSP
light: DIQMTQSPSSLSASVGDRVTITCRASQDIHKYIAWYQQKPGQAPRLLIQYTSTLQPGVPSRFSGSGSGTDYTFTISSLQPEDIATYYCLQYEQLRTFGGGTKVEIKRTVAAPSVFIFPPSDEQLKSGTASVVCLLNNFYPREAKVQWKVDNALQSGNSQESVTEQDSKDSTYSLSSTLTLSKADYEKHKVYACEVTHQGLSSPVTKSFNRGEC
notes: Heterodimerized anti-epiregulin IgG1 antibody; L328W and K334L introduced into H240-Kn120; also called H240-Kn149/H240-HI068/L73-k0
As a reminder, the Kd is the constant that tells how readily two partners part at equilibrium. Regarding B1, the “Relative KD” value in the test with FcgRIIaR [1] was 1.1; in the test with FcgRIIIaV [2], 1.1; with FcgRIa [3] it was 0.4; with FcgRIIb [4], 1; with FcgRIIIaF [5], 1.5; in the test with FcgRIIaH [6] it was 1.6. The Kd with FcgRIIaR [7] amounted to 19 nM; with FcgRIIIaV [8] it was 0.32 nM; in the test with FcgRIa [9], 0.38 nM; with FcgRIIb [10] it was 150 nM; with FcgRIIIaF [11], 1.5 nM; with FcgRIIaH [12] it was 26 nM.

B2: H240-Kn172/H240-Hl177/L73-k0 (antibody, human IgG1, kappa)
heavy 1: QDQLVQSGAEVKKPGASVKVSCKASGFNIKDTYIQWVRQAPGQGLEWMGRIDPLRKQTKYREKFEGRVTITADTSTNTAYMELSSLRSEDTAVYYCVRSGREFDYWGQGTLVTVSSASTKGPSVFPLAPSSKSTSGGTAALGCLVKDYFPEPVTVSWNSGALTSGVHTFPAVLQSSGLYSLSSVVTVPSSSLGTQTYICNVNHKPSNTKVDKKVEPKSCDKTHTCPPCPAPEYYWGPMVFLFPPKPKDTLMISRTPEVTCVVVDVSDEDPEVKFNWYVDGVEVHNAKTKPREEQYNATYRVVSVLTVLHQDWLNGKEYKCKVSNKDLPAPMEKTISKAKGQPREPQVCTLPPSRDELTKNQVSLWCLVKGFYPSDIAVEWESNGQPENNYKTTPPVLDSDGSFFLYSKLTVDKSRWQQGNVFSCSVMHEALHNHYTQKSLSLSP
heavy 2: QDQLVQSGAEVKKPGASVKVSCKASGFNIKDTYIQWVRQAPGQGLEWMGRIDPLRKQTKYREKFEGRVTITADTSTNTAYMELSSLRSEDTAVYYCVRSGREFDYWGQGTLVTVSSASTKGPSVFPLAPSSKSTSGGTAALGCLVKDYFPEPVTVSWNSGALTSGVHTFPAVLQSSGLYSLSSVVTVPSSSLGTQTYICNVNHKPSNTKVDKKVEPKSCDKTHTCPPCPAPELLGGPSVFLFPPKPKDTLMISRTPEVTCVVVDVSHEEPEVKFNWYVDGVEVHNAKTKPREEQYNSTYRVVSVLTVLHQDWLNGKEYKCKVSNDALPKPQEETISKAKGQPREPQVYTLPPSRCELTKNQVSLSCAVKGFYPSDIAVEWESNGQPENNYKTTPPVLDSDGSFFLVSKLTVDKSRWQQGNVFSCSVMHEALHNHYTQKSLSLSP
light: DIQMTQSPSSLSASVGDRVTITCRASQDIHKYIAWYQQKPGQAPRLLIQYTSTLQPGVPSRFSGSGSGTDYTFTISSLQPEDIATYYCLQYEQLRTFGGGTKVEIKRTVAAPSVFIFPPSDEQLKSGTASVVCLLNNFYPREAKVQWKVDNALQSGNSQESVTEQDSKDSTYSLSSTLTLSKADYEKHKVYACEVTHQGLSSPVTKSFNRGEC
notes: Heterodimerized anti-epiregulin IgG1 antibody; I332M introduced into H240-Kn120 and I332Q into H240-Hl068; also called H240-Kn172/H240-HI177/L73-k0
In the case of B2, the “Relative KD” value came out at 0.7 with FcgRIIaR [1]; 1.6 with FcgRIIIaV [2]; 0.6 in the test with FcgRIa [3]; 0.9 with FcgRIIb [4]; 1.1 with FcgRIIIaF [5]; 0.7 with FcgRIIaH [6]. Besides, the Kd in the test with FcgRIIaR [7] worked out at 29 nM; with FcgRIIIaV [8], 0.22 nM; with FcgRIa [9], 0.25 nM; in the test with FcgRIIb [10] it was 160 nM; with FcgRIIIaF [11], 2 nM; with FcgRIIaH [12], 57 nM.

B3: H240-Kn166/H240-Hl170/L73-k0 (antibody, human IgG1, kappa)
heavy 1: QDQLVQSGAEVKKPGASVKVSCKASGFNIKDTYIQWVRQAPGQGLEWMGRIDPLRKQTKYREKFEGRVTITADTSTNTAYMELSSLRSEDTAVYYCVRSGREFDYWGQGTLVTVSSASTKGPSVFPLAPSSKSTSGGTAALGCLVKDYFPEPVTVSWNSGALTSGVHTFPAVLQSSGLYSLSSVVTVPSSSLGTQTYICNVNHKPSNTKVDKKVEPKSCDKTHTCPPCPAPEYYWGPMVFLFPPKPKDTLMISRTPEVTCVVVDVSDEDPEVKFNWYVDGVEVHNAKTKPREEQYNATYRVVSVLTVLHQDWLNGKEYKCKVSNKDAPAPIEKTISKAKGQPREPQVCTLPPSRDELTKNQVSLWCLVKGFYPSDIAVEWESNGQPENNYKTTPPVLDSDGSFFLYSKLTVDKSRWQQGNVFSCSVMHEALHNHYTQKSLSLSP
heavy 2: QDQLVQSGAEVKKPGASVKVSCKASGFNIKDTYIQWVRQAPGQGLEWMGRIDPLRKQTKYREKFEGRVTITADTSTNTAYMELSSLRSEDTAVYYCVRSGREFDYWGQGTLVTVSSASTKGPSVFPLAPSSKSTSGGTAALGCLVKDYFPEPVTVSWNSGALTSGVHTFPAVLQSSGLYSLSSVVTVPSSSLGTQTYICNVNHKPSNTKVDKKVEPKSCDKTHTCPPCPAPELLGGPSVFLFPPKPKDTLMISRTPEVTCVVVDVSHEEPEVKFNWYVDGVEVHNAKTKPREEQYNSTYRVVSVLTVLHQDWLNGKEYKCKVSNDAAPKPIEETISKAKGQPREPQVYTLPPSRCELTKNQVSLSCAVKGFYPSDIAVEWESNGQPENNYKTTPPVLDSDGSFFLVSKLTVDKSRWQQGNVFSCSVMHEALHNHYTQKSLSLSP
light: DIQMTQSPSSLSASVGDRVTITCRASQDIHKYIAWYQQKPGQAPRLLIQYTSTLQPGVPSRFSGSGSGTDYTFTISSLQPEDIATYYCLQYEQLRTFGGGTKVEIKRTVAAPSVFIFPPSDEQLKSGTASVVCLLNNFYPREAKVQWKVDNALQSGNSQESVTEQDSKDSTYSLSSTLTLSKADYEKHKVYACEVTHQGLSSPVTKSFNRGEC
notes: Anti-epiregulin IgG1 antibody; L328A introduced into both H chains of H240-Kn120/H240-Hl068/L73-k0; also called H240-Kn166/H240-HI170/L73-k0
Take B3: the “Relative KD” value with FcgRIIaR [1] stood at 0.6; with FcgRIIIaV [2], 0.4; with FcgRIa [3], 2.4; with FcgRIIb [4], 0.8; with FcgRIIIaF [5] it was 0.5; with FcgRIIaH [6], 1.9. The Kd came out at 31 nM in the test with FcgRIIaR [7]; 1 nM with FcgRIIIaV [8]; 0.066 nM in the test with FcgRIa [9]; 200 nM with FcgRIIb [10]; 4.2 nM with FcgRIIIaF [11]; 22 nM with FcgRIIaH [12].
